This note sets out measurements from patent US20130036520A1.

The target of experiment [1] is Cry1Ab receptor sites located in BBMV's (brush border membrane vesicles) from Ostrinia nubilalis larval midgut (Ostrinia nubilalis). As to the kind of experiment: homologous radioligand competition, unlabeled Cry1Ab against 0.5 nM 125I Cry1Ab on O. nubilalis BBMVs. In general terms: In a radioligand displacement assay an active substance lowers the binding of a labelled ligand.

The target is the same in experiment [2]. As to the kind of experiment: heterologous radioligand competition, unlabeled DIG-3 against 0.5 nM 125I Cry1Ab on O. nubilalis BBMVs.

Broadly, the IC50 is the concentration at which inhibition is half-maximal. The substance “Cry1Ab toxin, trypsin activated, non-radioactive (unlabeled homologous competitor) (from UniProt P0A370 29-607)” came in with an IC50 in experiment [1] of 0.5 nM.
Regarding “DIG-3 toxin, trypsin activated (unlabeled heterologous competitor)”, the percent displacement of 125I Cry1Ab binding at 300 nM DIG-3 in experiment [2] turned out to be 25%.
